Consider six molecules from publication PMC7703624 (Proceedings of the National Academy of Sciences of the …, 2020).

Where a SMILES comes first, the peptide text is derived from it.

Test [1] has as its target T1, ENAH EVH1 (Homo sapiens, UniProt Q8N8S7). The experiment in a line: other fluorescence titration.
Target sequence in this assay (Q8N8S7 whole entry): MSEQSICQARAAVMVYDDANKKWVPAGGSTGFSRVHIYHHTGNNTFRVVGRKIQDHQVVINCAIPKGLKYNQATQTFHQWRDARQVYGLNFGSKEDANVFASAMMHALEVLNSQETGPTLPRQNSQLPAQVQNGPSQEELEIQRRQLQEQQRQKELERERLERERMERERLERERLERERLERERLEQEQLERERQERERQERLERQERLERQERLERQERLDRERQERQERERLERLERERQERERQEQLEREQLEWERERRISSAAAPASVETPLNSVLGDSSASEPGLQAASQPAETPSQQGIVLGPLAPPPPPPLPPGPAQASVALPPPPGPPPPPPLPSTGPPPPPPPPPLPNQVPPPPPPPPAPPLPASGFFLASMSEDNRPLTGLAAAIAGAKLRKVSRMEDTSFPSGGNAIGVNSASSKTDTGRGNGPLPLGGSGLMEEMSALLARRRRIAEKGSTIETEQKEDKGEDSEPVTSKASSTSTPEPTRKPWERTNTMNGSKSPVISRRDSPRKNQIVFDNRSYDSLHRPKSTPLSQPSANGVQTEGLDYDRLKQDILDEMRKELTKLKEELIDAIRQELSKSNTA
For test [2], the target named is T1, ENAH EVH1. The experiment in a line: Fluorescence titration. The class given is binding.
For another test, the target named is Fyn SH3 (Homo sapiens, UniProt P06241). The experiment in a line: Pulldown of GST-Fyn SH3 from Jurkat cell lysate, displacement of ADAP. It is filed as binding. As to conditions: Jurkat cell lysate 1 mg/ml, 50 µM active concentration.
Fyn SH3, sequence (P06241 82-143 limits assumed): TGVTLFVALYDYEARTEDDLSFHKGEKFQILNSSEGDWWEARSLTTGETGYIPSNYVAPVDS

On to “2ΔC, Ac-SFE[2-Cl-Phe][ProM-2][ProM-1]-OEt (peptide)”, for which the Kd with ENAH EVH1 [1] was determined as 2900 nM.

In turn, “2ΔN, Ac-[2-Cl-Phe][ProM-2][ProM-1]TEDEL-NH2 (peptide)” gave a Kd with ENAH EVH1 [1] of 330 nM.

With `CCOC(=O)[C@@H]1CCCN1C(=O)[C@@H]1CCCN1C(=O)[C@@H]1CCCN1C(=O)[C@@H]1CCCN1C(=O)[C@H](Cc1ccccc1)NC(C)=O` [wt1, Ac–FPPPP–OEt] (Ac-FPPPP-OEt), binding at ENAH EVH1 [2] was characterised by a dissociation constant (Kd) of 153000 nM.

As to Ac-RPLPPLP-NH2 [Ac–RPLPPLP −NH2], on Fyn SH3, the “displacement of ADAP from bead-bound GST-Fyn SH3” value is “displaced ADAP”.

“chimeric peptide 2, Ac-SFE[2-Cl-Phe][ProM-2][ProM-1]TEDEL-NH2” registered a Kd in the test with ENAH EVH1 [1] of 150 nM.

In the case of Ac-SFEFPPPPTEDEL-NH2 [wt2, Ac-…-NH2], the dissociation constant Kd with ENAH EVH1 [1] was 13000 nM. Against the preceding molecule, the Kd is about 87-fold higher.
